In patent publication US20210388087A1 (Chugai, published 2021):
Where a chain is given by its changes, count along the chain named. Numbers in names are those of the source.

T1: Human CD3eg linker (human)
T1 construct: Single chain: epsilon and gamma subunits of human CD3 joined by a 29-mer linker, Flag-tag at the C-terminus; also called recombinant human CD3
T1 chain: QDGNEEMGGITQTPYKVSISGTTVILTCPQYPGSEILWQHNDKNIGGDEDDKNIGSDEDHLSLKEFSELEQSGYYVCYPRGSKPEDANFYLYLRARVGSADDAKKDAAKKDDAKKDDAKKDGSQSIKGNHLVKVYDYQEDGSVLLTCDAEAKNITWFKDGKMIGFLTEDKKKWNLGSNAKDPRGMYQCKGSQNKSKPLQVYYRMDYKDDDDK

B1: H183/L072 VH H93I (antibody, name in Kabat numbering, V domains shown)
VH: QVQLVESGGGLVQPGRSLRLSCAASGFTFSNAWMHWVRQAPGKGLEWVAQIKDKGNAYAAYYAPSVKGRFTISRDDSKNSIYLQMNSLKTEDTAVYYCIYVHYASASTVLPAFGVDAWGQGTTVTVSS
VL: DIVMTQSPLSLPVTPGEPASISCQASQELVHMNRNTYLHWYQQKPGQAPRLLIYKVSNRFPGVPDRFSGSGSGTDFTLKISRVEAEDVGVYYCAQGTSVPFTFGQGTKLEIK
B2: H183/L072 VH I51H (antibody, name in Kabat numbering, V domains shown)
VH: B1 VH with I51H, I99H
VL: B1 VL
B3: H183/L072 VH I51F (antibody, name in Kabat numbering, V domains shown)
VH: B1 VH with I51F, I99H
VL: B1 VL
B4: H183/L072 VH K52E (antibody, name in Kabat numbering, V domains shown)
VH: B1 VH with K52E, I99H
VL: B1 VL
B5: H183/L072 VH K52V (antibody, name in Kabat numbering, V domains shown)
VH: B1 VH with K52V, I99H
VL: B1 VL
B6: H183/L072 VH K52R (antibody, name in Kabat numbering, V domains shown)
VH: B1 VH with K52R, I99H
VL: B1 VL
B7: H183/L072 VH I51P (antibody, name in Kabat numbering, V domains shown)
VH: B1 VH with I51P, I99H
VL: B1 VL
B8: H183/L072 VH K52T (antibody, name in Kabat numbering, V domains shown)
VH: B1 VH with K52T, I99H
VL: B1 VL
B9: H183/L072 VH H96L (antibody, name in Kabat numbering, V domains shown)
VH: B1 VH with I99H, H102L
VL: B1 VL
B10: H183/L072 VH K52N (antibody, name in Kabat numbering, V domains shown)
VH: B1 VH with K52N, I99H
VL: B1 VL
B11: H183/L072 VH I51K (antibody, name in Kabat numbering, V domains shown)
VH: B1 VH with I51K, I99H
VL: B1 VL
B12: H183/L072 VH I51Y (antibody, name in Kabat numbering, V domains shown)
VH: B1 VH with I51Y, I99H
VL: B1 VL
B13: H183/L072 VH K52D (antibody, name in Kabat numbering, V domains shown)
VH: B1 VH with K52D, I99H
VL: B1 VL
B14: H183/L072 VH K52M (antibody, name in Kabat numbering, V domains shown)
VH: B1 VH with K52M, I99H
VL: B1 VL
B15: H183/L072 VH I51R (antibody, name in Kabat numbering, V domains shown)
VH: B1 VH with I51R, I99H
VL: B1 VL
B16: H183/L072 VH H96I (antibody, name in Kabat numbering, V domains shown)
VH: B1 VH with I99H, H102I
VL: B1 VL
B17: H183/L072 VH I51A (antibody, name in Kabat numbering, V domains shown)
VH: B1 VH with I51A, I99H
VL: B1 VL
B18: H183/L072 VH K52P (antibody, name in Kabat numbering, V domains shown)
VH: B1 VH with K52P, I99H
VL: B1 VL
B19: H183/L072 VH H93P (antibody, name in Kabat numbering, V domains shown)
VH: B1 VH with I99P
VL: B1 VL
B20: H183/L072 VH I51V (antibody, name in Kabat numbering, V domains shown)
VH: B1 VH with I51V, I99H
VL: B1 VL
B21: H183/L072 VH K52Y (antibody, name in Kabat numbering, V domains shown)
VH: B1 VH with K52Y, I99H
VL: B1 VL
B22: H183/L072 VH K52A (antibody, name in Kabat numbering, V domains shown)
VH: B1 VH with K52A, I99H
VL: B1 VL
B23: H183/L072 VH H96A (antibody, name in Kabat numbering, V domains shown)
VH: B1 VH with I99H, H102A
VL: B1 VL
B24: H183/L072 VH H93M (antibody, name in Kabat numbering, V domains shown)
VH: B1 VH with I99M
VL: B1 VL
B25: H183/L072 VH I51M (antibody, name in Kabat numbering, V domains shown)
VH: B1 VH with I51M, I99H
VL: B1 VL
B26: H183/L072 VH H96M (antibody, name in Kabat numbering, V domains shown)
VH: B1 VH with I99H, H102M
VL: B1 VL
B27: H183/L072 VH I51S (antibody, name in Kabat numbering, V domains shown)
VH: B1 VH with I51S, I99H
VL: B1 VL
B28: H183/L072 VH K52H (antibody, name in Kabat numbering, V domains shown)
VH: B1 VH with K52H, I99H
VL: B1 VL
B29: H183/L072 VH K52G (antibody, name in Kabat numbering, V domains shown)
VH: B1 VH with K52G, I99H
VL: B1 VL
B30: H183/L072 VH K52F (antibody, name in Kabat numbering, V domains shown)
VH: B1 VH with K52F, I99H
VL: B1 VL
B31: H183/L072 VH I51G (antibody, name in Kabat numbering, V domains shown)
VH: B1 VH with I51G, I99H
VL: B1 VL
B32: H183/L072 VH K52L (antibody, name in Kabat numbering, V domains shown)
VH: B1 VH with K52L, I99H
VL: B1 VL
B33: H183/L072 VH K52W (antibody, name in Kabat numbering, V domains shown)
VH: B1 VH with K52W, I99H
VL: B1 VL
B34: H183/L072 VH I51N (antibody, name in Kabat numbering, V domains shown)
VH: B1 VH with I51N, I99H
VL: B1 VL
B35: H183/L072 VH I51L (antibody, name in Kabat numbering, V domains shown)
VH: B1 VH with I51L, I99H
VL: B1 VL
B36: H183/L072 VH H93L (antibody, name in Kabat numbering, V domains shown)
VH: B1 VH with I99L
VL: B1 VL
B37: H183/L072 VH I51D (antibody, name in Kabat numbering, V domains shown)
VH: B1 VH with I51D, I99H
VL: B1 VL
B38: H183/L072 VH I51Q (antibody, name in Kabat numbering, V domains shown)
VH: B1 VH with I51Q, I99H
VL: B1 VL
B39: H183/L072 VH K52Q (antibody, name in Kabat numbering, V domains shown)
VH: B1 VH with K52Q, I99H
VL: B1 VL
B40: H183/L072 VH I51W (antibody, name in Kabat numbering, V domains shown)
VH: B1 VH with I51W, I99H
VL: B1 VL
B41: H183/L072 VH H96P (antibody, name in Kabat numbering, V domains shown)
VH: B1 VH with I99H, H102P
VL: B1 VL
B42: H183/L072 VH I51E (antibody, name in Kabat numbering, V domains shown)
VH: B1 VH with I51E, I99H
VL: B1 VL
B43: H183/L072 VH K52I (antibody, name in Kabat numbering, V domains shown)
VH: B1 VH with K52I, I99H
VL: B1 VL
B44: H183/L072 VH I51T (antibody, name in Kabat numbering, V domains shown)
VH: B1 VH with I51T, I99H
VL: B1 VL
B45: H183/L072 VH K52S (antibody, name in Kabat numbering, V domains shown)
VH: B1 VH with K52S, I99H
VL: B1 VL

Molecular target: T1, Human CD3eg linker
Assay: Biacore SPR, vs template H183/L072

Row | fold change of affinity | Binder
1 | 0 fold | B1
2 | 0 fold | B2
3 | 0 fold | B3
4 | 0 fold | B4
5 | 0 fold | B5
6 | 0.8 fold | B6
7 | 0 fold | B7
8 | 0.5 fold | B8
9 | 0 fold | B9
10 | 0 fold | B10
11 | 1 fold | B11
12 | 0 fold | B12
13 | 0 fold | B13
14 | 0.6 fold | B14
15 | 0 fold | B15
16 | 0 fold | B16
17 | 0 fold | B17
18 | 0 fold | B18
19 | 0 fold | B19
20 | 1.1 fold | B20
21 | 0 fold | B21
22 | 0 fold | B22
23 | 0.3 fold | B23

Row | fold change of affinity | Binder
24 | 0 fold | B24
25 | 0.3 fold | B25
26 | 0.1 fold | B26
27 | 0.4 fold | B27
28 | 0 fold | B28
29 | 0 fold | B29
30 | 0 fold | B30
31 | 0 fold | B31
32 | 0 fold | B32
33 | 0 fold | B33
34 | 0 fold | B34
35 | 0 fold | B35
36 | 0 fold | B36
37 | 0 fold | B37
38 | 0 fold | B38
39 | 0.3 fold | B39
40 | 0 fold | B40
41 | 0 fold | B41
42 | 0 fold | B42
43 | 0 fold | B43
44 | 0.2 fold | B44
45 | 0 fold | B45
